Values quoted from earlier work as cited in paper PMC5423825.

Biological target: CFluc398 (FGG-tagged C-terminal firefly luciferase fragment) CFluc398 (Photinus pyralis) [luciferase: P08659]

Substance: NFluc437 (FGG-tagged N-terminal firefly luciferase fragment) NFluc437 (from UniProt P08659)
- Kd: 112 µM
